From US20240287166A1 (published 2024)

Target: T1, CSP on P. falciparum sporozoites (Plasmodium falciparum, UniProt P19597 19-374)
T1 construct: whole, on cells; also called P. falciparum sporozoites, which present CSP in its native conformation
Test: sporozoite ELISA, mouse sera Day 7 (FIG. 6D)

T1 sequence (P19597 19-374): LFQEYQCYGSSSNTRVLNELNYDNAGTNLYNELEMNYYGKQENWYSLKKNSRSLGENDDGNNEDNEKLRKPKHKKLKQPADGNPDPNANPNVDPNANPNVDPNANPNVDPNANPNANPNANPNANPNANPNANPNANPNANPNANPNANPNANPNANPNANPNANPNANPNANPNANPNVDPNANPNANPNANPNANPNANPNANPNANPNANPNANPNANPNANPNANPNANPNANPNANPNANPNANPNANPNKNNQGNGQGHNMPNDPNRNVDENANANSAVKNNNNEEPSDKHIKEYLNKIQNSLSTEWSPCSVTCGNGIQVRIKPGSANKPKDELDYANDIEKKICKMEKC

B1: 10e DMAb-2 (antibody, human IgG1, lambda, V domains shown)
VH: QVQLVESGGGVVQPGRSLRLSCAASGFAFSNYGMHWVRQAPGKGLEWVAVIWHDGSLKYYTQSVKGRFTISRDNSKNTLYLQMNSLRAEDTAVYYCTVWYLETPDDGFDIWGQGTMVTVSS
VL: QLVLTQPPSASASLGVSVTLTCTLSHGHTSKAIAWHQQQPGKGPRYLMKVNSDGSHTKGAAVPDRFSGSTSGAERHFTISNLQSDDEADYYCQAWDSGIWVFGGGTKLTVLG
notes: also called MGU10-based engineered DMAb 2; 10e DMAb-2 (MGU10 VH-1 / MGU10 VL)
binding result: binds
